The text below walks through data of paper PMC6710073 (Nature chemical biology, 2019).

Common to all, as to assay: BLI
(In general: In BLI a coated tip is dipped into the sample, and binding shifts an interference pattern.)

Experiment [1] concerns the target T1, SUMO-25–109MDM2 (UniProt Q00987 25-109).
Experiment [2] addresses T1, SUMO-25–109MDM2. The source holds these as a separate data set.
In experiment [3] the target is T1, SUMO-25–109MDM2. This is another data set of the same source.

Read-outs that look alike come from different tables or passages of the source. Non-standard residues stand in square brackets, D forms with d. No end group written: not given here. Cba = N[C@@H](CC1CCC1)C(=O)O

As usually defined, the Kd is the concentration at which binding is half-saturated. Lower therefore signals a tighter complex.

B1: compound 37 (peptide)
chain: LTFEHY[hexylalanine]AQ[Cba]TSK
Take B1: the Kd with SUMO-25–109MDM2 [1] is 0.5 nM. That is a sub-nanomolar value.

B2: biotinylated 118: modified 15–29 p53 peptide with an N-terminal Gly-Ser linker (peptide)
peptide: GSGSGSGSGSGSSQETFSDLWKLLPEN
modifications: not fully specified; D-biotin on its N terminus
Consider B2, for which the binding result with SUMO-25–109MDM2 [2] was “binds”.

B3: compound 6 (peptide)
peptide: LTFEHYWAQFTSK
modifications: also: biotinylated, position not given here
Take B3: the binding result in the experiment with SUMO-25–109MDM2 [3] is “binds”.
